From patent US20240325445A1 (Regeneron, published 2024)

Legend:
[1] = target: human B-cell maturation antigen (BCMA) on cells (human) (UniProt Q02223); assay: cell-based or functional assay
[2] = target: T1, human B-cell maturation antigen (BCMA) on cells (human, UniProt Q02223 1-184); assay: cell-based or functional assay
T1 sequence: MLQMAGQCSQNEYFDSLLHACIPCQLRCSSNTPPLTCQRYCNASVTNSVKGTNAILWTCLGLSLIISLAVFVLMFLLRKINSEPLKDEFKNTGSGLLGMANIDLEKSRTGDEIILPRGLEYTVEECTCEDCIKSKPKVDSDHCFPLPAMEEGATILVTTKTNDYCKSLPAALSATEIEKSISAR

[3] = target: irrelevant protein fused to hIgG1-Fc (human); assay: flow cytometry; 10 ug/ml Fc isotype control on Jurkat/NFATLuc cells carrying the CAR, Alexa 647 secondary antibody
[4] = target: T2, BCMA extracellular domain fused to an hIgG1-Fc (human, UniProt Q02223 1-54); assay: flow cytometry; 10 ug/ml BCMA ecto-hFc on Jurkat/NFATLuc cells carrying the CAR, Alexa 647 secondary antibody
T2 construct: also called BCMA ecto-hFc; BCMA-hFc; not shown: human IgG1 Fc
T2 sequence: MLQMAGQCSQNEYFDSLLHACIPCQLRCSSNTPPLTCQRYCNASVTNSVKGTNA
Description: Relative cell surface expression of the BCMA CAR constructs in Jurkat/NFATLuc cells was accessed by flow cytometry. […] Cells were then washed and fixed using a 50% solution of BD Cytofix (BD, Cat #554655) diluted in staining buffer. Samples were run on the Intellicyt iQue flow cytometer and analyzed by FlowJo 10.2 to calculate the mean fluorescent intensity (MFI). The signal to noise ratio (S:N) is determined by taking the ratio of the BCMA-hFc or Fc isotype control MFI to the secondary antibody alone MFI.

[5] = target: T1, human B-cell maturation antigen (BCMA) …; assay: cell-based or functional assay; remark: listed apart in the source

control chimeric antigen receptor with an irrelevant scFv (17363)
percent cytotoxicity (calcein release), H929 target cells, T effector:target ratio 50, mean [1]: -0.8% | percent cytotoxicity (calcein release), MOLP8 target cells, T effector:target ratio 50, mean [1]: -3.1%

B1: BCMA 16711 VL-VH chimeric antigen receptor (scFv of mAb16711) (scFv)
chain: DIQMTQSPSSVSASVGDRVTITCRASRGISSWLAWYQQKPGKAPKLLIHAASSLQSGVPSRFSGSGSGTDFTLTISSLQPEDFATYYCQQAISFPFTFGPGTKVDIKGGGGSGGGGSGGGGSQVQLVESGGGVVQPGRSLRLSCAASGFTFSTYGIHWVRQAPGKGLEWVAVILHDGSSNYYAESVKGRFIISRDNSKNTLYLQMNSLRAEDTALYYCTKRYSEAAGPNWFDPWGQGTLVTVSSTTTPAPRPPTPAPTIASQPLSLRPEACRPAAGGAVHTRGLDFACDIYIWAPLAGTCGVLLLSLVITLYCKRGRKKLLYIFKQPFMRPVQTTQEEDGCSCRFPEEEEGGCELRVKFSRSADAPAYKQGQNQLYNELNLGRREEYDVLDKRRGRDPEMGGKPRRKNPQEGLYNELQKDKMAEAYSEIGMKGERRRGKGHDGLYQGLSTATKDTYDALHMQALPPR
notes: 3C7 cells; a linker before the hinge or a signal peptide may be present; also called 16711 VL-VH CART; 16711 CAR
CAR-T Max Activity (NFAT-luciferase, S:N), APC Daudi [2]: 2.6 S:N (highest RLU / lowest RLU) | CAR-T Max Activity (NFAT-luciferase, S:N), APC RAJI [2]: 7.9 S:N (highest RLU / lowest RLU) | CAR-T Max Activity (NFAT-luciferase, S:N), APC RPMI8226 [2]: 1.8 S:N (highest RLU / lowest RLU) | S:N (Isotype-hFc) (ratio of MFI to secondary antibody alone) [3]: 1.2 | S:N (BCMA-hFc) [4]: 3.7 ratio of MFI to secondary antibody alone

B2: BCMA 16732 VL-VH chimeric antigen receptor (scFv of mAb16732) (scFv)
chain: DIQMTQSPSSLSASVGDRVTITCRTSQSIGNYLNWFQQKPGKAPKLLIYTASSLQNGVPSRFTGSGSGTDFTLTISSLQPEDFVIYYCQQSFSTPYTFGQGTKLEIKGGGGSGGGGSGGGGSEVQLVESGGGLVQPGRSLRLSCAASGFTFDDYAMHWVRQAPGKGLEWVSGISWNSGNMGYADSVKGRFTISRDNAKNSLFLQMHSLRAEDTAFYYCAKVRLTAFDFWGQGTLVTVSSTTTPAPRPPTPAPTIASQPLSLRPEACRPAAGGAVHTRGLDFACDIYIWAPLAGTCGVLLLSLVITLYCKRGRKKLLYIFKQPFMRPVQTTQEEDGCSCRFPEEEEGGCELRVKFSRSADAPAYKQGQNQLYNELNLGRREEYDVLDKRRGRDPEMGGKPRRKNPQEGLYNELQKDKMAEAYSEIGMKGERRRGKGHDGLYQGLSTATKDTYDALHMQALPPR
notes: 3C7 cells; a linker before the hinge or a signal peptide may be present; also called 16732 VL-VH CART; 16732 CAR
CAR-T Max Activity (NFAT-luciferase, S:N), APC Daudi [2]: 4.9 S:N (highest RLU / lowest RLU) | CAR-T Max Activity (NFAT-luciferase, S:N), APC RAJI [2]: 16.8 S:N (highest RLU / lowest RLU) | CAR-T Max Activity (NFAT-luciferase, S:N), APC RPMI8226 [2]: 5.2 S:N (highest RLU / lowest RLU) | S:N (Isotype-hFc) (ratio of MFI to secondary antibody alone) [3]: 1 | S:N (BCMA-hFc) [4]: 13.1 ratio of MFI to secondary antibody alone

B3: BCMA 16747 VL-VH chimeric antigen receptor (scFv of mAb16747) (scFv)
chain: DIQMTQSPSSVSASVGDRVTITCRASQGINNWLVWYQQKPGKAPKLLIYAATSLQSGVPSRFSGSGSGTDFTLTISSLQPEDFATYYCQQANSFPPTFGQGTKLEIKGGGGSGGGGSGGGGSQVQLVESGGGLVKPGGSLRLSCAASGFTFSDYYISWIRQAPGKGLEWVSYISSSGSSIKYADSVKGRFTISRDNAKNSLYLQMNSLRAEDTAVYYCAREGGNYGMDVWGQGTTVTVSSTTTPAPRPPTPAPTIASQPLSLRPEACRPAAGGAVHTRGLDFACDIYIWAPLAGTCGVLLLSLVITLYCKRGRKKLLYIFKQPFMRPVQTTQEEDGCSCRFPEEEEGGCELRVKFSRSADAPAYKQGQNQLYNELNLGRREEYDVLDKRRGRDPEMGGKPRRKNPQEGLYNELQKDKMAEAYSEIGMKGERRRGKGHDGLYQGLSTATKDTYDALHMQALPPR
notes: a linker before the hinge or a signal peptide may be present
percent cytotoxicity (calcein release), H929 target cells, T effector:target ratio 0.78, mean [5]: 0.9% | percent cytotoxicity (calcein release), H929 target cells, T effector:target ratio 1.56, mean [5]: 1.8% | percent cytotoxicity (calcein release), H929 target cells, T effector:target ratio 3.13, mean [5]: 2.9% | percent cytotoxicity (calcein release), H929 target cells, T effector:target ratio 6.25, mean [5]: 4.2% | percent cytotoxicity (calcein release), H929 target cells, T effector:target ratio 12.5, mean [5]: 9.3% | percent cytotoxicity (calcein release), H929 target cells, T effector:target ratio 25, mean [5]: 19.4% | percent cytotoxicity (calcein release), H929 target cells, T effector:target ratio 50, mean [5]: 29.3% | percent cytotoxicity (calcein release), MOLP8 target cells, T effector:target ratio 0.78, mean [5]: -2.9% | percent cytotoxicity (calcein release), MOLP8 target cells, T effector:target ratio 1.56, mean [5]: 0.2% | percent cytotoxicity (calcein release), MOLP8 target cells, T effector:target ratio 3.13, mean [5]: 2.2% | percent cytotoxicity (calcein release), MOLP8 target cells, T effector:target ratio 6.25, mean [5]: 5.8% | percent cytotoxicity (calcein release), MOLP8 target cells, T effector:target ratio 12.5, mean [5]: 8.2% | percent cytotoxicity (calcein release), MOLP8 target cells, T effector:target ratio 25, mean [5]: 10.9% | percent cytotoxicity (calcein release), MOLP8 target cells, T effector:target ratio 50, mean [5]: 14% | CAR-T Max Activity (NFAT-luciferase, S:N), APC Daudi [2]: 14 S:N (highest RLU / lowest RLU) | CAR-T Max Activity (NFAT-luciferase, S:N), APC RAJI [2]: 38.9 S:N (highest RLU / lowest RLU) | CAR-T Max Activity (NFAT-luciferase, S:N), APC RPMI8226 [2]: 12.5 S:N (highest RLU / lowest RLU) | S:N (Isotype-hFc) (ratio of MFI to secondary antibody alone) [3]: 1.3 | S:N (BCMA-hFc) [4]: 209 ratio of MFI to secondary antibody alone
